Literature values, collected in paper PMC5429092.

Biological target: PP1 (Homo sapiens) (UniProt P62136)
Test: ITC

Sequence of UniProt P62136 (P62136 2-330): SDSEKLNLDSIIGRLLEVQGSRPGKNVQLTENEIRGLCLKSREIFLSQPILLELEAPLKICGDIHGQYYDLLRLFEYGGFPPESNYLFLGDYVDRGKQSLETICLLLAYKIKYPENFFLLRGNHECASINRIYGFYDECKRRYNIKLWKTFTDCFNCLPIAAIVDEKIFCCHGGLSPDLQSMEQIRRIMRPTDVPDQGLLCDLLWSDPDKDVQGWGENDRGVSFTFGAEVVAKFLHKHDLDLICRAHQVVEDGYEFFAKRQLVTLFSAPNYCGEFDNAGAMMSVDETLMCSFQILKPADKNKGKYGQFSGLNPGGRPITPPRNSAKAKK

Kd: 62 nM
Substance: PPP1R15A (from UniProt O75807)
